One block for each binder: values may come before it.
What was measured:
[1] = biological target: T1, recombinant rat/mouse FGFR2b-Fc (rat); experiment: ELISA, plate coated with 0.1 ug/ml rat/mouse FGFR2b-Fc, anti-human IgG HRP detection
T1 construct: also called rat FGFR2b fused with murine Fc
Method: (§1) The cross-species binding of Ab 36c to recombinant cyno, rat/mouse, and human FGFR2b-Fc fusion proteins was conducted with ELISA. In brief, 96-well ELISA plate were coated with about 100 ul/well 0.1 μg/ml recombinant human FGFR2b-Fc, recombinant rat/mouse FGFR2b-Fc, or recombinant cyno FGFR2b-Fc protein in PBS overnight. Then the plate was blocked with 2% BSA in PBS with 0.05% Tween20 and incubation with antibody samples for 60 min at room temperature, and then washed twice in 1×TBST (Cell Signaling Technology, #9997) and followed by incubation with anti-human lgG HRP (Horseradish peroxidase) conjugate for 60 min at a room temperature. HRP activity was detected with tetra-methylbenzidine substrate (Cell Signaling Technology, #7004) and the reaction was stopped with stop solution (Cell Signaling Technology, #7002). The plate was read at 450 nm. […] Ab 36c has the highest binding affinity to rat/mouse FGFR2b, followed by human FGFR2b, and then cyno FGFR2b.

[2] = biological target: T2, recombinant cyno FGFR2b-Fc (Cynomolgus monkey); experiment: ELISA, plate coated with 0.1 ug/ml cyno FGFR2b-Fc, anti-human IgG HRP detection
T2 construct: also called Cynomolgus monkey FGFR2b ECD-murine Fc; cynomolgus FGFR2b
Method: as §1

[3] = biological target: T3, recombinant human FGFR1b-Fc (human, UniProt P11362-19 22-376, limits assumed); experiment: ELISA, plate coated with HuFGFR1b
T3 construct: Bought (R&D Systems); not shown: human Fc of the bought fusion protein; not described
T3 sequence (looked up): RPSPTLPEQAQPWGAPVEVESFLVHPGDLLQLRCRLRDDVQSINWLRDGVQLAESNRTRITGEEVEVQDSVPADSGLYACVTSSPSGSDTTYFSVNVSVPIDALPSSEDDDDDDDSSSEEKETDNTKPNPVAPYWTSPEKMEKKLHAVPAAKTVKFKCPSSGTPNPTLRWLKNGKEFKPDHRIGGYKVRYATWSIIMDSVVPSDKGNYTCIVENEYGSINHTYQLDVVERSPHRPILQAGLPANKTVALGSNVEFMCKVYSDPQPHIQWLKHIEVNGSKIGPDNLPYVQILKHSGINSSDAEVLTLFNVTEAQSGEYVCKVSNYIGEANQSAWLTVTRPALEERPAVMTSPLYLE

[4] = biological target: T4, recombinant human FGFR4-Fc (human, UniProt P22455 22-369); experiment: ELISA, plate coated with HuFGFR4
T4 construct: Bought (R&D Systems); not shown: human Fc of the bought fusion protein; not described
T4 sequence (looked up): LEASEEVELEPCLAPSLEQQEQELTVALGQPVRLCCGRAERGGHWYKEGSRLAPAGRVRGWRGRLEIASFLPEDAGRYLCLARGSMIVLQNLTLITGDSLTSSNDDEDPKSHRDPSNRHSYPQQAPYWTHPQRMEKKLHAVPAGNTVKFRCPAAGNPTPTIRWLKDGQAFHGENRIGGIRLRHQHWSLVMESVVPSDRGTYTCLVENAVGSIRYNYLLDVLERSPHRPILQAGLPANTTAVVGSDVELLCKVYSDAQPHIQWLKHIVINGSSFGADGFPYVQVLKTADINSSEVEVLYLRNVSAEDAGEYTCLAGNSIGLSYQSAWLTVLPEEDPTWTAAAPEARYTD

[5] = biological target: T5, recombinant human FGFR3b-Fc (human, UniProt P22607-2 23-377); experiment: ELISA, plate coated with HuFGFR3b
T5 construct: Bought (R&D Systems); not shown: human Fc of the bought fusion protein; not described
T5 sequence (looked up): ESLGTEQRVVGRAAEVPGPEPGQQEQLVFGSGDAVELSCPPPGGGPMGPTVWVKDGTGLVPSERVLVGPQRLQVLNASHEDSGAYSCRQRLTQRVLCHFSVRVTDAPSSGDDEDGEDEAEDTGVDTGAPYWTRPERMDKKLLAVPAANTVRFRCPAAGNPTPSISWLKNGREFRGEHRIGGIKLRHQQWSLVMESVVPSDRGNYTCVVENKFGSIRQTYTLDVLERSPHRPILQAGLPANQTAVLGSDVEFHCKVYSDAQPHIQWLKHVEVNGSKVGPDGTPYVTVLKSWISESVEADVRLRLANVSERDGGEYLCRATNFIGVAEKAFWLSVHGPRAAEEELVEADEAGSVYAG

[6] = biological target: T3, recombinant human FGFR1b-Fc; experiment: ELISA on FGFR family Fc fusion proteins
[7] = biological target: T4, recombinant human FGFR4-Fc; experiment: ELISA on FGFR family Fc fusion proteins
[8] = biological target: T5, recombinant human FGFR3b-Fc; experiment: ELISA on FGFR family Fc fusion proteins

EC50 (read off the curve) [1]: ~0.2 nM
EC50 (read off the curve) [2]: ~0.4 nM
B1: Ab 36c (antibody, V domains shown)
VH: QPYLQQSGAELVRPGASVKMSCKASGYTFTSYNMHWVKQTPRQGLEWIGAIFPENGDTSYNQKFKGKATLTVDKSSSTAYMQLSSLTSEDSAVYFCARGGFDYWGQGTTLTVSS
VL: DIVMTQSHKFMSTSVGDRVSITCKASQDVSTNVAWYQQKPGQSPKLLIFSASYRYTGVPDRFAGSGSGTDFTFTISSVQAEDLAVYYCQQHYSSPYTFGGGTKLDIK
notes: Chimeric: mouse VH and VL fused to human heavy and light chain constant regions; also called chimeric Ab 36; Ab c 36c

binding result [3]: no binding
binding result [4]: no binding
binding result [5]: no binding
B2: Ab 36 (antibody, V domains shown)
VH: QPYLQQSGAELVRPGASVKMSCKASGYTFTSYNMHWVKQTPRQGLEWIGAIFPENGDTSYNQKFKGKATLTVDKSSSTAYMQLSSLTSEDSAVYFCARGGFDYWGQGTTLTVSS
VL: DIVMTQSHKFMSTSVGDRVSITCKASQDVSTNVAWYQQKPGQSPKLLIFSASYRYTGVPDRFAGSGSGTDFTFTISSVQAEDLAVYYCQQHYSSPYTFGGGTKLDIK
notes: Mouse monoclonal antibody from a hybridoma; also called mouse Ab 36; antibody 36

binding result [6]: no binding
binding result [7]: no binding
binding result [8]: no binding
B3: Ab hu36-2 (antibody, human IgG1, V domains shown)
VH: QVQLVQSGAEVKKPGSSVKVSCKASGYTFTSYNMHWVRQAPGQGLEWIGAIFPENGDTSYNQKFKGRATITADKSTSTAYMELSSLRSEDTAVYYCARGGFDYWGQGTTVTVSS
VL: DIQMTQSPSSLSASVGDRVTITCKASQDVSTNVAWYQQKPGKAPKLLIFSASYRYTGVPSRFSGSGSGTDFTFTISSLQPEDIATYYCQQHYSSPYTFGQGTKLEIK
notes: Humanized antibody with human IgG1

— US20230052680A1 (DIZAL JIANGSU PHARMACEUTICAL, published 2023)
